The values that follow come from US20250325630A1, “HOMODIMER FUSION PROTEINS FOR TREATING ATOPIC DERMATITIS” (Intervet Inc., priority 2021, published 2025).

The target in experiment [1] is T1, canine IL-4 (canine, UniProt O77762 25-132, biotin-labeled in the Octet assay (site not stated)).
T1 sequence (looked up): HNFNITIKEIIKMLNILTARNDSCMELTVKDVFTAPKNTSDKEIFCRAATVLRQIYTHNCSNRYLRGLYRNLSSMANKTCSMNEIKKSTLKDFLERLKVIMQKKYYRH
The experiment can be described thus: cell-based or functional assay.

Experiment [2] deals with T2, canine IL-13 (canine, UniProt Q9N0W9 19-131, limits assumed, biotin-labeled in the Octet assay (site not stated)).
T2 sequence (looked up): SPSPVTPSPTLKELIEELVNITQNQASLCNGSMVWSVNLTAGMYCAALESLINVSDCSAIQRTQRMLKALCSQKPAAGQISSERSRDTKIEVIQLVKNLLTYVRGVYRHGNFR
Kind of experiment: cell-based or functional assay.

The target in experiment [3] is T2, canine IL-13. Kind of experiment: BLI (Octet HTX), biotin-cIL-13 on SA biosensors, fusion protein in solution, 1:1 fit. The protocol:
(§1) The binding constants for the cFc fusion proteins provided in Tables 3 and 4 below, were determined using OCTET® HTX. All kinetics measurements were performed by OCTET® HTX using SA® biosensors and DATA ACQUISITION® 12.0 software. 10 μg/mL of biotin-labeled antigen, either canine IL-4 (cIL-4) or canine IL-13 (cIL-13) were loaded onto the SAR biosensors for 120 seconds. Next, the biosensors were placed into 1×pH 7.0 TBS/Casein buffer for 60 seconds for the blocking phase. For the association phase, antigen loaded biosensors were placed into 2-fold serial dilutions from 1 μM down to 15.6 nM of the wild-type, the bispecific, or the FcRn-mutant receptor Fc-fusions that recognized the cIL-4 or cIL-13 antigen in 1×pH 7.0 TBS/Casein buffer for 30 seconds. The last well was buffer alone and that sensor was used for reference sensor subtraction. Finally, the biosensors were placed into 1×pH 7.0 TBS/Casein buffer for 120 seconds for the dissociation phase. The results were then analyzed using Data Analysis 12.0 software and the curves were fitted using a 1:1 binding model.
(In general: In BLI a coated tip is dipped into the sample, and binding shifts an interference pattern.)

Experiment [4] has as its target T1, canine IL-4. The experiment can be described thus: BLI (Octet HTX), biotin-cIL-4 on SA biosensors; ND = Binding Not Detected. The method, then:
as §1

The target of experiment [5] is T2, canine IL-13. The experiment can be described thus: cell-based or functional assay. The source holds these as a separate data set.
The target in experiment [6] is T2, canine IL-13. The experiment can be described thus: BLI (Octet); summary table, rounded from Table 4.
Experiment [7] has as its target T1, canine IL-4. Kind of experiment: cell-based or functional assay. The source holds these as a separate data set.
Experiment [8] concerns the target T2, canine IL-13. The experiment can be described thus: cell-based or functional assay. This is another data set of the same source.

B1: cIL-4Rα-13Rα2 ZW1-cFc (Fc fusion)
chain 1: VKVLHEPSCFSDYISTSVCQWKMDHPTNCSAELRLSYQLDFMGSENHTCVPENREDSVCVCSMPIDDAVEADVYQLDLWAGQQLLWSGSFQPSKHVKPRTPGNLTVHPNISHTWLLMWTNPYPTENHLHSELTYMVNVSNDNDPEDFKVYNVTYMGPTLRLAASTLKSGASYSARVRAWAQTYNSTWSDWSPSTTWLNYYEPWEQHLPPKRENGRVPRPPDCPKCPAPEMLGGPSVFIFPPKPKDTLLIARTPEVTCVVVDLDPEDPEVQISWFVDGKQMQTAKTQPREEQFNGTYRVVSVLPIGHQDWLKGKQFTCKVNNKALPSPIERTISKARGQAHQPSVYVYPPSREELSKNTVSLTCLIKDFFPPDIDVEWQSNGQQEPESKYRTTPPQLDEDGSYALVSKLSVDKSRWQRGDTFICAVMHEALHNHYTQESLSHSPGK
chain 2: SMLSNAEIKVNPPQDFEIVDPGYLGYLSLQWQPPLFPDNFKECTIEYELKYRNIDSENWKTIITKNLHYKDGFDLNKGIEAKINTLLPAQCTNGSEVRSSWAETTYWTSPQGNRETKIQDMDCVYYNWQYLVCSWKPGMGVHFDTNYQLFYWYEGLDHSAECTDYIKVNGKNMGCRFPYLESSDYKDFYICVNGSSESQPIRPSYFIFQLQNIVKPMPPDYLSLTVKNSEEINLKWNMPKGPIPAKCFIYEIEFTEDGTTWVTTTVENEIQITRTSNESQKLCFLVRSKVNIYCSDDGIWSEWSDEQCWKGDIWKETPKRENGRVPRPPDCPKCPAPEMLGGPSVFIFPPKPKDTLLIARTPEVTCVVVDLDPEDPEVQISWFVDGKQMQTAKTQPREEQFNGTYRVVSVLPIGHQDWLKGKQFTCKVNNKALPSPIERTISKARGQAHQPSVYVLPPSREELSKNTVSLLCLIKDFFPPDIDVEWQSNGQQEPESKYLTWPPQLDEDGSYFLYSKLSVDKSRWQRGDTFICAVMHEALHNHYTQESLSHSPGK
notes: also called cIL4Rα-IL13Rα2_ZW1-cFc; cIL-4Rα-IL13Rα2_ZW1-cFc
For orientation: Kd means a measure of binding affinity in units of concentration. Lower therefore signals higher affinity. For orientation: koff means the rate constant with which the complex falls apart. As usually defined, the kon is the rate constant with which the complex forms. Regarding B1, the “IL-4 IC50 (inhibition of cIL-4 mediated STAT6 phosphorylation in DH82 cells)” value in experiment [1] worked out at 184 nM. Moreover, in experiment [2], the “IL-13 IC50 (inhibition of cIL-13 mediated STAT6 phosphorylation in DH82 cells)” value is 29.4 nM. In experiment [3], this molecule returned a Kd of 4.15 nM, a koff of 0.000135 s⁻¹ and a kon of 32600 M⁻¹ s⁻¹. The binding result in experiment [4] is listed as “no binding (tested: 1 µM (highest concentration tested))”. For the same molecule, in experiment [5], the “fold change of the concentration that inhibits 50% of the cIL-13 mediated STAT6 phosphorylation in DH82 cells, against cIL-13Rα2-cFc” value is roughly 200 fold higher. In experiment [6], this molecule had a Kd of 4 nM. The “IL-4 (IC50), summary table” value in experiment [7] was found to be 200 nM. Further, the “IL-13 (IC50), summary table” value in experiment [8] amounted to 30 nM.
